Data taken from article PMC12259851, “Rapid detection and capture of clinical Escherichia coli strains mediated by OmpA-targeting nanobodies” (Communications Biology, 2025).

How the values were obtained:
[1] = target: T1, OmpA-short on clinical E. coli strain CS#2 (Escherichia coli clinical isolate CS#2 …, UniProt P0A910, strain); assay: flow cytometry on cells; as a8, CS#2, with the anticoagulant citrate phosphate dextrose (CPD); settings: one partner purified
T1 construct: OmpA, short isoform, of clinical isolate CS#2; Dense O-antigen layer; source: endogenous, on cells of clinical E. coli isolate CS#2

[2] = target: T2, OmpA-short on E. coli K-12 MC1061 cells (Escherichia coli K-12 MC1061, UniProt P0A910); assay: flow cytometry on cells; concentration series of Nb01-AF647; cells fixed after staining (2% PFA), CytoFlex S, triplicates; Hill equation; apparent affinity (EC50); cells grown in LB; settings: one partner purified
T2 construct: Strain devoid of O-antigen; source: endogenous, on E. coli MC1061 cells

[3] = target: T1, OmpA-short on clinical E. coli strain …; assay: as above; settings: one partner purified
[4] = target: T3, OmpA-short on clinical E. coli strain CS#1 (Escherichia coli clinical isolate CS#1 …, UniProt P0A910, strain); assay: as above; settings: one partner purified
T3 construct: OmpA, short isoform, of clinical isolate CS#1; Loose, partially permeable O-antigen layer; also called clinical strain #1; source: endogenous, on cells of clinical E. coli isolate CS#1

[5] = target: T4, OmpA-short on E. coli K1 strain ATCC 11775 (Escherichia coli K1 ATCC 11775, strain); assay: as above; settings: one partner purified
T4 construct: OmpA, short isoform, of E. coli K1 ATCC 11775; loop regions identical to those of MC1061 OmpA-short; Strain with a K1 polysaccharide capsule; also called E. coli K1 OmpA-short; source: endogenous, on cells of E. coli K1 ATCC 11775
T4 chain: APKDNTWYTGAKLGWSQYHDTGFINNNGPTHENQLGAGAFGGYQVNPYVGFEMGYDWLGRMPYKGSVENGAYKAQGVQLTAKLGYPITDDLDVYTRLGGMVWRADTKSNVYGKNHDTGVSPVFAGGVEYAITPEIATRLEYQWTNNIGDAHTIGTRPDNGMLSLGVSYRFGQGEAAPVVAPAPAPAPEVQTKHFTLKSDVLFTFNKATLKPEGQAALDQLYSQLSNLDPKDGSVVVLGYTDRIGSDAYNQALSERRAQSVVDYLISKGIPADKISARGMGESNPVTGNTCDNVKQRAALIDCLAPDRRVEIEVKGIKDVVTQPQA

[6] = target: T1, OmpA-short on clinical E. coli strain …; assay: flow cytometry on cells; as a8, CS#2, with EDTA during staining; settings: one partner purified
[7] = target: T1, OmpA-short on clinical E. coli strain …; assay: flow cytometry on cells; as a8, CS#2, with the anticoagulant heparin; settings: one partner purified
[8] = target: T5, Transmembrane domain of OmpA-short (Escherichia coli K-12 MC1061, UniProt P0A910); assay: crystal structure; β-barrel domain of OmpA mixed 1:1.1 with the nanobody, sitting drop vapor diffusion at 20 °C; interface analysed with PDBePISA; settings: both partners purified
T5 construct: OmpA, short isoform, E. coli K-12 MC1061, transmembrane (β-barrel) domain; also called β-barrel domain of OmpA-short

[9] = target: T6, OmpF on E. coli K-12 MC1061 cells (Escherichia coli K-12 MC1061, UniProt P02931); assay: flow cytometry on cells; Nb18 on the E. coli K12 strain (Supplementary Fig. 11c); conditions not told for this experiment; settings: one partner purified
T6 construct: outer membrane protein OmpF, E. coli K-12 MC1061; The homotrimeric state is cited from other work; also called E. coli K12 strain; source: endogenous, on E. coli MC1061 cells
T6 sequence (P02931 23-362): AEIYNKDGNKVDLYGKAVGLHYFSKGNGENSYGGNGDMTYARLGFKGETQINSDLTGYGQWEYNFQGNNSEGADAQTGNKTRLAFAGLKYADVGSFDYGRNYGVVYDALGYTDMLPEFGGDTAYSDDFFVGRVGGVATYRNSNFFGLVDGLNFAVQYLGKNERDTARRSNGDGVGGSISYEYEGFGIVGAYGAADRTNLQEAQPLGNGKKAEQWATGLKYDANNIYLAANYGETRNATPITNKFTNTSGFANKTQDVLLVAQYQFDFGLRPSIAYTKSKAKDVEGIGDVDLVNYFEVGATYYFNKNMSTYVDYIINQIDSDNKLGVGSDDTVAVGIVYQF

B1: Nb01-AF647 (VHH)
VHH: QVQLVESGGGLVQPGGSLRLSCVVSGTGFTFSKSPMSWARQAPGKEREWVSAIFADSSTYYSDSVRGRFTISRDNAKNTVYLQMNNVKPEDTAVYYCGHRRLGKTTYDYRGKGTRVTVSA
notes: nanobody Nb01 (alpaca VHH against OmpA-short); also called AlexaFluor647-labeled Nb01; source: E. coli MC1061 ΔompA (pSBinit), periplasmic extraction, purified (Ni-NTA, SEC), labelled with maleimide-AF647
[1]
  EC50: 7.4 nM
[2]
  EC50: 12.9 nM
[3]
  EC50: 61.1 nM
[4]
  EC50: 25.9 nM
[5]
  EC50: 84.9 nM
[6]
  EC50: 4.98 nM
[7]
  EC50: 4.7 nM

B2: Nb01 (for X-ray crystallography) (VHH)
VHH: B1 VHH
notes: nanobody Nb01 (alpaca VHH against OmpA-short); source: E. coli MC1061 ΔompA (pBXNPHM3), purified (Ni-NTA, 3C cleavage, reverse Ni-NTA, SEC)
[8]
  binding result: binds

B3: Nb18 (for flow cytometry) (VHH)
VHH: QRQLVESGGGLVQAGGSLTLSCSATGTVPRIDAMGWYRRSTGKKREQVASVGRGGRTNYSDSAKGRFTISRNGNTVTLQMTSLKPEDTDVYFCNALKYGRNADYDDYWGRGTRVTVSA
notes: nanobody Nb18 (alpaca VHH against OmpF); the flow cytometry methods speak of Alexa Fluor 647-labeled nanobodies (cysteine at the C-terminus, pSBinit with myc- and His-tag); also called OmpF nanobody
[9]
  EC50: 3 nM
